According to a protein production outcome set (Wang et al. 2014):

Test: label from the status in PepcDB records

Row | Sequence | protein production
1 | MIHRRCVGGRRNHGGRVAQGSSRSRLPQQGTPVTMSSTSSTPPWNVQRLPGADGRVFLVTGGNAGIGYFVAEQLSATGATVVLGSRNPAKAEAATASIRARVPGSRVRAVRLDLADLSSLETAVESLEVERLDAVVHNAGVALDDPPREETGDGHELMFGTNHLGHFALTQWLMPLLSAAPAARVVTMGSFAAKSERLDLDDLQSRKDYQPKRTYGRSKLAQMYFGVELDRRLRAAGSTVASVVVHPGGALDSLTPSRPPVHVRSTGARLSAAPAALLLQGKHAGAWPAVRAVLDPAVRGGQLWGPRVFGLRGEPRREPVWDHLADPSVAARLWDASCDLMGTDLSTISG | failed
2 | ELDDATCDDIYSGYLKAYEQNWTAYPDAKGVLDRAVATGAPVGILTNGAAPMQQDKLDRTGLGLPELVMLAASTLDSAKPRPEMYARALTHLGARTATIIGDDWTNDVAAPRELGWNALYLDRSGTDPRADIHSLDELFH | failed
3 | AESESFVLDFSQPSADYLDFRNRLQADHVCLENCVLKDKAIAGTVKVQNLAFEKTVKIRMTFDTWKSYTDFPCQYVKDTYAGSDRDTFSFDISLPEKIQSYERMEFAVYYECNGQTYWDSNRGKNYRIIRAELKSTQGMTKPHSGPDLG | not failed
4 | MSLVMSGEKMKVIIVEDEFLAQQELSWLINTHSQMEIVGSFDDGLDVLKFLQHNKVDAIFLDINIPSLDGVLLAQNISQFAHKPFIVFITAWKEHAVEAFELEAFDYILKPYQESRIINMLQKLTTAWEQQNNAAEGHHHHHH | not failed
5 | MEVYTTENEQVDVLRRFLAENGKALVVGVVLGVGALVGWRFWQSHQNDSVQAASASYQQVTEQLAEGKAEAIASTEKFTAENKNTYGALASLELARHYVDQKDFAKAVQQLVQAQSQTKDADLLAVVNLRLARVQLQENKADDALKTLDAIKLEGWASQAAEVRGDILASKGDNQAARDAYNKGLSSNPSQAQQALLRMKLNNLSS | failed
6 | MKFAVAVSGDRVNGPGESEEVQIYETDGGNVRLIEKYSNPALNATAARGVFMLKSALDHGANALVLSEIGSPGFNFIKNKMDVYIVPEMPVADALKLILEGKVSPATAPTHDHGHHH | not failed
7 | MTEDQAFWNAFAPDYAAAEQASRLPIAHDVIAWLRSTQLLPAHSAVDLAAGTGRYAVQMMPWVQELTLIDWSSAMLAFAKERMHQQADTKAQFIVADWRKLHKPLNADMLFVSQLPTLKPQDLKMLMNWASQTVVLNFQTAQSDALLEQAASLLGLQLPPVYQADPARMISFKVWLTAQRIPFQSHSLTYEIEEQTTLSDLLPDLATPIGLKTAASLAKAITGHENTHVQVTDRLTYTYTQLVWHVLEHHHHHH | failed
8 | NRFIGYIQVACCCLLLCASCVRDGMDEDCNSYVRFVYDYNLEYIDLFHKQATKMNLYVFDEKGVFVTELKEESGAFAPDYLMTLPGAMAGRRYIFVAWSGLYGESYDKVTLTPGVSTLEDLEVSVNNLKTRIGGGVVDRELHLLWHGKQTEVSPQYNNDITTVSLLKNTKKFRIIMQMLDDSSIHVDDYDFRIISPNGRYNHENGLLGDETDEKVEYTAYHTEDDPETGAIAELNTLRLMTDTENRLVITHKSSGNVILDIPLNKYLNALRLQQYADIPLQEYLDRADKHGIILFFKGMDGNGNYISVDVQINGWLIRKQEVD | not failed
9 | PKAPVTGYVRFLNERREQIRTRHPDLPFPEITKMLGAEWSKLQPAEKQRYLDEAEKEKQQYLKELWAYQQSEAYKVCTE | not failed
10 | MKTMRKILEIDEERCNGCGLCVLDCAEGAIAIVDGKAKIVSDSFCDGLGACIGSCPQDALHIIEREAVPFDEEAAMEHVRSQGGTPEANHGHGHGAGTPHRHGQSAEHGGHGRIPGHGGCPGAAMRRFDSAESPAFAVAEGTVKGPGHWPLKIRLVPPTAPFLKGADVLVAADCAAAASPIFHSHFAAGKVVLIGCPKFDDTEAYAERLADILRVSGIASLTVLRMEVPCCRGLSAAAEKARVLSGTSLVLKEVIMTCAGGPAAPAPLSSLLEHHHHHH | not failed
11 | MYLTLTIAAMPAYNEAHVIAEVILGCKKYVDNVIVVDDGSSDNTAEVARSAGGYVVKHEVNKGYGAALKSCFKLAREFNADVMIIMDSDGQHNPDEIPRLLEPLKHGADLVIGSRFINGNGKNVPAYRKVGMKILDIATYLAGGILVTDSQSGFRAYGKKAIENVRFDGNNMSAGSEILLYIKDHNLKFTEVEIHCRYDLDQCSSQNPFLHGMEVAFQILKNMGFRRPLYYFTVPGILLIAAGLLIEIAFLHLVGSFGFGVISLIFLMILTGIFMVFTGVILHLVSKMISQIVPGQKGTESLNDGF | failed
12 | ESTLVNENVLENIPMGIIVVDINCNITSINDYALNIMDKNIESVIGMPVLDIIPTSDTPLVIKTKEKKLGKTQHINKHIVISNCCPIISNNNVIGALCVFQDIS | failed
13 | MDRKLLHLLCSPDTRQPLSLLESKGLEALNKAIASGTVQRADGSIQNQSLHEALITRDRKQVFRIEDSIPVLLPEEAIATIQIANFPDKLEHHHHHH | not failed
14 | GHMHTPFIVALDFPSKQEVERFLRPFAGTPLFVKVGMELYYQEGPAIVAFLKEQGHAVFLDLKLHDIPNTVKQAMKGLARVGADLVNVHAAGGRRMMEAAIEGLDAGTPSGRMRPRCIAVTQLTSTDERMLHEELWISRPLVETVAHYAALAKESGLDGVVCSANEAAFIKERCGASFLAVTPGIRFADDAAHDQVRVVTPRKARALGSDYIVIGRSLTRAADPLRTYARLQHEWNGGERESTTPT | not failed
15 | MQHLDLQVVRKALKWSVGGERVWFCTVLTTYGSAPRAPGSLLAVNASGEWIGSLSGGCVEDDFLERVAAGGFPDPAVIVRYGEGDDPNSNIRLPCGGILDVLVENLAPDCDVQAHLRELESALLGQRRLLREVELGSGARSLRDDSSHGPRAERDGECVRLRVGAAQRLLLAGYSSVAHACAEFGKGLGFEVILCDPREEALRGVVLEGIEIRRELPSLFIADGGCHADTAVVALTHDPKIDDLAMLEAVRTEAFYIGVMGSRATSEKRFERLRRIGGLGDAELARIHAPIGLNLGSKTPAEIALAVLADILRIRNGIPRERL | failed
16 | MSTKTGNYISIAIFAFFGGIARAWLNSSFGFYGTFWGNIIGCFLLAFFTYLFMEFKDVRQWLTVGLGTGFVGAFTTFSTFNLDVLKNIQANVPITALIYFLSSIIFGFCFAYLGMNAGKQVGNLLRKED | failed
17 | MNHVAVIGGGIIGASWAVVFARRGLEVTIVERDAACLAGLPARLAGMIERSASLLGAGEQPGDVAARIGATDALAAAVGRADYVQEAVSENLALKRTLFAELDALAPAHALLASSTSTYGASQFTEALAGRARCLVAHPMTPPHLSPVVEMAASAWTDPQVLAGAEAFMRSLGQHPVRIRKEIPGFVLNRLQGALLMEMFRVIADDVISPADADALISQGLGLRWATLGPLEGVDLNAPGGIADYLQRYGHIFNDMAVGQGLPAPVDAELISALDGAMRAALPLERLEAKRGWRDRAIAGVRVALHDYTGEKPLEHHHHHH | failed
18 | MPKKDNFSILLMGIDARPGQSMDKERSDAMVLATFNRKDKSVKLLSIPRDSYVNIPGRGYDKITHAHSLGGRDLSTETVENLLDIPVDYVMEANFSAFKEVVDELGGVPITIKEDYIVRQIKKDTKGKVNLQTGEQTLGGEEALAYVRTRKADTDLKRGERQMEVIKSIINKSKSLTSIPAYDDILDTVGKNVSMNLSLNDAIGLIPFMTSIQTVDTLQLKGSDYQPGKVYYFQLDQENLNEIKQELKQQLDVLEHHHHHH | not failed
19 | MMFHEGTNVAGNAELIPIRLFGTPRCEAVRDAFFPSKGFALTAALILAPNQSLSRQYAASLLWENVEQKRALGNLRQLILRLQKLPSEDDAILLTEGNDLKAGALAQRTDLAIFLAGARAEDPMRRLNALLEFGGDLLEGLEAGQDHLYLWLLSERRRLKDLFFSSYTQLLEELTRFGRASSNDIARLAECACKIEPEREETYRAAMAAYARVGNISACEGMYQLLMEQLRQEDRSPEAETVALKRRIQSLAATIAGPVEPEEGSRRQVLAKPRVAFVRPARVDGQPVPTVIHAFVEDVANSLVRYRTFTVLSPHSTFALAHDRVDDSYAMLRADYRIISTVFDDSRMSVALIEDASGEIVWSLEAVLTERHIHAAFRLLSKQVAAALAREIERLQVEPDRNHSGEAYRQLLEGQQLLRGKCDLPLLRRARSLFRKAVDLDHSLAVARARVAQSLQLEWLMLGGNDPHLLHRAKAEADASVEIDPALGVGHWMCAVVALYQRDFDISAEKFFEAEALAPNSADLLLQHADALAHFGDAEIAWDKFQQAINLNPLAPDIYWWAGASIAFKRQDYGTAVELCGRMENDEPALRVLTASHALHGDLLAARESGSRLQENYPGMTAREISSLSPDRDPIANERFYHALRLAGIK | failed
